This note sets out measurements from patent US20080125491A1 (ARENA PHARMACEUTICALS, published 2008).

Where two headings read alike, the source gives them in different places.

Common to all, as to test: cell-based or functional assay
In assay [1] the target is HA/V5 double tagged endogenous human FPRL2 (human).
Assay [2] deals with HA/V5 double-tagged endogenous human FPRL1 (human) (UniProt P25090).
The target in assay [3] is HA/V5 double-tagged endogenous human FPR (human) (UniProt P21462).
Assay [4] deals with T1, HA/V5 double tagged endogenous human FPRL2 (human).
T1 chain: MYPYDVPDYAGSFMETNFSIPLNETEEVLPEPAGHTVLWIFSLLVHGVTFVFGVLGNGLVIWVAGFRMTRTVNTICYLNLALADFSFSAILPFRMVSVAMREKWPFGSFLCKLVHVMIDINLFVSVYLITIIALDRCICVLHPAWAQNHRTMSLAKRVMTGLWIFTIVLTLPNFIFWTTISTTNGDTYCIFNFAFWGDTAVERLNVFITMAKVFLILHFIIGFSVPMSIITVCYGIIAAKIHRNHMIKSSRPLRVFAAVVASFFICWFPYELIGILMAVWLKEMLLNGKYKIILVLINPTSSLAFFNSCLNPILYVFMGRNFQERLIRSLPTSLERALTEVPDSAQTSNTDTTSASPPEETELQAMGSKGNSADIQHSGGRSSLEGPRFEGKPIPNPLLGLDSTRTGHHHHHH

HA/V5 double-tagged endogenous human FPRL1 (human), sequence (P25090 other isoform, or with tags, fused parts or gaps): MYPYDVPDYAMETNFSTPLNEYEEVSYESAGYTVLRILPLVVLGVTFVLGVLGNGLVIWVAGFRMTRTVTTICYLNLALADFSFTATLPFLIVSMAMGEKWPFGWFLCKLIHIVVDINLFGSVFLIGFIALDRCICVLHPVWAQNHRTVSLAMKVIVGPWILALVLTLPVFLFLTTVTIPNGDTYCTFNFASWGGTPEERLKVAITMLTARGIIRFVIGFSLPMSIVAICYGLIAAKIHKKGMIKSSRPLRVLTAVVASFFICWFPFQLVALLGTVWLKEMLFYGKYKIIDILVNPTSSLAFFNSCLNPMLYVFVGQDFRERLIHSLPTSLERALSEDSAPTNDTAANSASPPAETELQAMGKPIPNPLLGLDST
HA/V5 double-tagged endogenous human FPR (human), sequence (P21462 other isoform, or with tags, fused parts or gaps): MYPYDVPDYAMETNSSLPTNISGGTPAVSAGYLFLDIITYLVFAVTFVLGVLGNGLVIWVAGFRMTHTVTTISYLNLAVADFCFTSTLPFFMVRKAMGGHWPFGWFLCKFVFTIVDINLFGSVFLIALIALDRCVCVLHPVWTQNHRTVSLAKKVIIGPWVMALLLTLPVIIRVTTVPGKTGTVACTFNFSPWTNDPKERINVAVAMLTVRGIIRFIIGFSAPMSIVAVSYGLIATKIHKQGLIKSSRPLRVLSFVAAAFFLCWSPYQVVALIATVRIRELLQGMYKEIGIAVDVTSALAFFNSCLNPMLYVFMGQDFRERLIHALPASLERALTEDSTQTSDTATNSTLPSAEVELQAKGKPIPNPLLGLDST

As for [Gly14]-Humanin (peptide), the EC50, [35S]GTPγS binding to membranes of transiently transfected CHO cells is 72 nM in assay [1] and 1500 nM in assay [2]. For the same molecule, the [35S]GTPγS binding to membranes of transiently transfected CHO cells; highest dose without significant activity in assay [3] is over 10 µM.

B1: Humanin (peptide)
peptide: MAPRGFSCLLLLTSEIDLPVKRRA
As to B1, in assay [4], the “EC50, [35S]GTPγS binding to membranes of transiently transfected CHO cells” value is about 320 nM and the “EC50 of Humanin driven pigment aggregation in melanophore (Gi coupling)” value was about 239 nM.
